Assay results: publication PMC10578477, “Biochemical and genetic dissection of the RNA-binding surface of the FinO domain of Escherichia coli ProQ”

Experiments:
[1] = target: T1, ProQ NTD WT (FinO domain) (Escherichia coli, UniProt P45577 1-130); assay: EMSA; settings: EMSA: 25 mM Tris pH 7.5, 150 mM NaCl, 5% glycerol, 1 mM MgCl2, 1 nM 32P-RNA, 30 min RT; microplates pretreated with 0.0025% BSA; 6% gel in 0.5x TBE at 4 C
T1 sequence: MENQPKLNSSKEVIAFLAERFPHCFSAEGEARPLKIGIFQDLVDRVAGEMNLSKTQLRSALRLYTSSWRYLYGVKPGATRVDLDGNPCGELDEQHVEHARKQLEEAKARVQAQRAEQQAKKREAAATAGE

[2] = target: T1, ProQ NTD WT (FinO domain); assay: EMSA; range for five RNAs; EMSA: 25 mM Tris pH 7.5, 150 mM NaCl, 5% glycerol, 1 mM MgCl2, 1 nM 32P-RNA, 30 min RT; microplates pretreated with 0.0025% BSA; 6% gel in 0.5x TBE at 4 C; settings: protein: recombinant; tags: His6-TEV removed, N-terminal Ser remains; label: 5'-32P; terminator hairpin, 8 U 3' tail
[3] = target: T1, ProQ NTD WT (FinO domain); assay: EMSA; EMSA: 25 mM Tris pH 7.5, 150 mM NaCl, 5% glycerol, 1 mM MgCl2, 1 nM 32P-RNA, 30 min RT; microplates pretreated with 0.0025% BSA; 6% gel in 0.5x TBE at 4 C; settings: protein: recombinant, tags: His6-TEV removed, N-terminal Ser remains, label: 5'-32P

Work on gapA-3' yielded a Kd [1] of 14 nM.

Work on RybB yielded a Kd [1] of 26 nM.

B1: cspE-3' (structured_RNA)
RNA: GUAAGAUACGUCAGCAAGAAUUCAAAACCCGCUUAAUCAGCGGGUUUUUUUU
Work on B1 yielded a Kd [2] of about 6.33 nM.

B2: cspE-mini-3'-6U (structured_RNA)
RNA: GGAAUUCGGAAGGCGCUUAAUCAGCGCCUUUUUU
B2 was tested, and the binding signal ([3]; hairpin, 6 U tail (2 predicted single-stranded)) was ~2.5 fold weaker Kd than cspE-mini.

B3: cspE-mini (structured_RNA)
RNA: GGAAUUCGGAAGGCGCUUAAUCAGCGCCUUUUUUUU
B3 was tested, and the binding signal ([3]; hairpin with 5' and 3' single-stranded regions) was ~1 fold weaker Kd than cspE-3'.
